Source: article PMC10786891, “Massively parallel profiling of RNA-targeting CRISPR-Cas13d”
Residue numbers refer to the chain shown, from its start. Names may count otherwise.

Biological target: T1, EsCas13d, nuclease-dead (Eubacterium siraeum, UniProt B0MS50, R295A;H300A;R849A;H854A)
T1 sequence: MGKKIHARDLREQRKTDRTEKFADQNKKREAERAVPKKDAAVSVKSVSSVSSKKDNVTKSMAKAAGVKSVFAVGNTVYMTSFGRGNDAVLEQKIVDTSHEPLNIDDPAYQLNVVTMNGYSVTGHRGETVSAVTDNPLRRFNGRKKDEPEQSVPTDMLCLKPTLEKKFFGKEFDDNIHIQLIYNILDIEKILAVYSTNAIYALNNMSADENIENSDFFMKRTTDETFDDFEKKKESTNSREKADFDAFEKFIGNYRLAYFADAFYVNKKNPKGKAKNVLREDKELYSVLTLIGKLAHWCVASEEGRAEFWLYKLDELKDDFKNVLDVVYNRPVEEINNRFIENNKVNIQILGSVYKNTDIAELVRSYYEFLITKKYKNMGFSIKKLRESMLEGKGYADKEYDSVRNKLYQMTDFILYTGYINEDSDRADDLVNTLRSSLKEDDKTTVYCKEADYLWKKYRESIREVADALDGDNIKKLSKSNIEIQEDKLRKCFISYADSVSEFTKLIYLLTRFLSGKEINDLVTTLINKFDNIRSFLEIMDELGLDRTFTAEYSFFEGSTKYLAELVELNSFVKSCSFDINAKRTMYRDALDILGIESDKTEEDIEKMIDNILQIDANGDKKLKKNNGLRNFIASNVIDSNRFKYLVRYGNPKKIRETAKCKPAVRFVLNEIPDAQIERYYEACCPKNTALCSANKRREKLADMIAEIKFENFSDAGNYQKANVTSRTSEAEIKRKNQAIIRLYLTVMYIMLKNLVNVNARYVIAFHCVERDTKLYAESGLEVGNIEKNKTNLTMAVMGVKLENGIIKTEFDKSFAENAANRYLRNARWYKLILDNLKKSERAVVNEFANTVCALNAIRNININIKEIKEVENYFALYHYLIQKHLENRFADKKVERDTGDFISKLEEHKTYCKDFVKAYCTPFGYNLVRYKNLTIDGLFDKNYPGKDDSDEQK
Experiment: crRNA (strand 1, pre-loaded); Mg2+; 40 mM Tris-HCl pH 7.5, 150 mM NaCl, 6 mM MgCl2, 1 mM DTT, 0.1% Tween-20, 0.2 mg/ml BSA; 25 C; 10 min per concentration, then washed
Conditions: tags: His6-TwinStrep-SUMO cleaved; N-terminal SNAP kept (SNAP-Surface 488); label: 3' end held by stalled T7 RNA polymerase

B1: target 1 insC 3' of 22,insG 3' of 10 (mixed)
RNA 1: CACCCGUGCAAAAAUGCAGGGGUCUAAAACUGAGCGGAUAACCUCUCUAUGG
RNA 2: GGGAAUGGAUCCACAUCUACGAAUUCGUACCCAUAGAGAGGUUGAUCCGCUCACCGAGAUCGGAAGAGCACACGU
For B1, the Kd was 34.4 ± 2.2 nM.

B2: target 1 insC 3' of 22,insU 3' of 17 (mixed)
RNA 1: B1 RNA 1
RNA 2: B1 RNA 2 with A37U, G38A, A39G, G40A, U42G, G44U
Binder B2 has a Kd of 25.2 ± 2.7 nM.

B3: target 1 insA 3' of 7,insG 3' of 7 (mixed)
RNA 1: B1 RNA 1
RNA 2: GGGAAUGGAUCCACAUCUACGAAUUCGUACCAUAGAGAGGUUAUCAGCGCUCACCGAGAUCGGAAGAGCACACGU
Binder B3 has a Kd of 13 ± 0.9 nM.

B4: target 1 insA 3' of 13,insA 3' of 13 (mixed)
RNA 1: B1 RNA 1
RNA 2: B3 RNA 2 with G40A, U41A, U42G, A43U, C45A, A46U, G47C
With B4 the Kd was 7.9 ± 0.4 nM.

B5: target 1 insU 3' of 12,insG 3' of 8 (mixed)
RNA 1: B1 RNA 1
RNA 2: B3 RNA 2 with A43U, U44A, C45U, A46G, G47C
For B5, the Kd was 9.41 ± 0.34 nM.

B6: target 1 C7G,U8C (mixed)
RNA 1: B1 RNA 1
RNA 2: GGGAAUGGAUCCACAUCUACGAAUUCGUACCAUAGAGAGGUUACGCGCUCACCGAGAUCGGAAGAGCACACGU
B6 gave a Kd of 10.7 ± 0.4 nM.

B7: target 1 insA 3' of 10,insG 3' of 1 (mixed)
RNA 1: B1 RNA 1
RNA 2: GGGAAUGGAUCCACAUCUACGAAUUCGUACCAUAGAGAGGUUAAUCCGCUCAGCCGAGAUCGGAAGAGCACACGU
B7 was tested, and the Kd was 14.4 ± 1.2 nM.

B8: target 1 G12A,G15C (mixed)
RNA 1: B1 RNA 1
RNA 2: B6 RNA 2 with G37C, G40A, C44U, G45C
B8 gave a Kd of 57 ± 15 nM.

B9: target 1 insA 3' of 10,insA 3' of 2 (mixed)
RNA 1: B1 RNA 1
RNA 2: B7 RNA 2 with G53A
B9 showed a Kd of 14 ± 0.8 nM.

B10: target 1 C7G,A9C (mixed)
RNA 1: B1 RNA 1
RNA 2: B6 RNA 2 with A43C, C44U
Work on B10 yielded a Kd of 9.26 ± 0.33 nM.

B11: target 1 U3G,U10C (mixed)
RNA 1: B1 RNA 1
RNA 2: B6 RNA 2 with U42C, C44U, G45C, U49G
With B11 the Kd was 14 ± 0.6 nM.

B12: target 1 A9C,U11A (mixed)
RNA 1: B1 RNA 1
RNA 2: B6 RNA 2 with U41A, A43C, C44U, G45C
With B12 the Kd was 59 ± 13 nM.

B13: target 1 insA 3' of 10,insU 3' of 1 (mixed)
RNA 1: B1 RNA 1
RNA 2: B7 RNA 2 with G53U
Binder B13 has a Kd of 13.9 ± 0.8 nM.

B14: target 1 insC 3' of 20,insC 3' of 14 (mixed)
RNA 1: B1 RNA 1
RNA 2: B1 RNA 2 with C32A, A33C, G40C, U42G, G44U
With B14 the Kd was 3.1 ± 0.5 nM.

B15: target 1 A1G,U11A (mixed)
RNA 1: B1 RNA 1
RNA 2: B6 RNA 2 with U41A, C44U, G45C, A51G
With B15 the Kd was 34 ± 4 nM.

B16: target 1 insC 3' of 22,insA 3' of 22 (mixed)
RNA 1: B1 RNA 1
RNA 2: B3 RNA 2 with U33C, G35U, G40A, U41G, U42G, A43U, C45A, A46U, G47C
In the case of B16, the Kd is reported as 10 ± 0.9 nM.

B17: target 1 insC 3' of 19,insA 3' of 17 (mixed)
RNA 1: B1 RNA 1
RNA 2: B1 RNA 2 with C32A, A33U, U34C, G38A, A39G, G40A, U42G, G44U
Work on B17 yielded a Kd of 49 ± 7 nM.

B18: target 1 insA 3' of 10,insC 3' of 1 (mixed)
RNA 1: B1 RNA 1
RNA 2: B7 RNA 2 with G53C
With B18 the Kd was 12.6 ± 0.6 nM.

B19: target 1 A1C,U11A (mixed)
RNA 1: B1 RNA 1
RNA 2: B6 RNA 2 with U41A, C44U, G45C, A51C
With B19 the Kd was 44 ± 10 nM.

B20: target 1 insG 3' of 19,insG 3' of 19 (mixed)
RNA 1: B1 RNA 1
RNA 2: B3 RNA 2 with A34G, G40A, U41G, U42G, A43U, C45A, A46U, G47C
B20 gave a Kd of 56 ± 15 nM.

B21: target 1 G12U,G13U (mixed)
RNA 1: B1 RNA 1
RNA 2: B6 RNA 2 with G39U, G40U, C44U, G45C
B21 was tested, and the Kd was 7.2 ± 0.5 nM.

B22: target 1 insA 3' of 12,insA 3' of 5 (mixed)
RNA 1: B1 RNA 1
RNA 2: B7 RNA 2 with U41A, A43U, C49A, U50C, C51U, A52C, G53A
With B22 the Kd was 17.4 ± 1.6 nM.

B23: target 1 insG 3' of 21,insU 3' of 2 (mixed)
RNA 1: B1 RNA 1
RNA 2: B1 RNA 2 with C32G, G44A, A45U, U46C, C48G, G49C, C50U, U51C, C52U
Work on B23 yielded a Kd of 70 ± 9 nM.

B24: target 1 insG 3' of 7,insA 3' of 4 (mixed)
RNA 1: B1 RNA 1
RNA 2: B3 RNA 2 with A46G, G47C, C48G, G49C, C50A
In the case of B24, the Kd is reported as 5.49 ± 0.24 nM.

B25: target 1 insG 3' of 21,insA 3' of 13 (mixed)
RNA 1: B1 RNA 1
RNA 2: B1 RNA 2 with C32G, G41A, U42G, G44U
B25 was tested, and the Kd was 44 ± 5 nM.

B26: target 1 insC 3' of 22,insC 3' of 8 (mixed)
RNA 1: B1 RNA 1
RNA 2: B1 RNA 2 with G44A, A45U, U46C
With B26 the Kd was 18 ± 1.8 nM.

B27: target 1 insA 3' of 15,insG 3' of 9 (mixed)
RNA 1: B1 RNA 1
RNA 2: B3 RNA 2 with G39A, U41G, A43U, U44A, C45G, A46U, G47C
B27 gave a Kd of 8.7 ± 0.7 nM.

B28: target 1 insG 3' of 18,insU 3' of 9 (mixed)
RNA 1: B1 RNA 1
RNA 2: B1 RNA 2 with C32A, A33U, U34A, A35G, G44A, A45U
With B28 the Kd was 71 ± 10 nM.

B29: target 1 insC 3' of 15,insG 3' of 8 (mixed)
RNA 1: B1 RNA 1
RNA 2: B3 RNA 2 with A38C, G39A, U41G, A43U, U44A, C45U, A46G, G47C
B29 gave a Kd of 23.3 ± 2.2 nM.

B30: target 1 insU 3' of 13,insC 3' of 9 (mixed)
RNA 1: B1 RNA 1
RNA 2: B3 RNA 2 with G40U, U41G, A43U, U44A, A46U, G47C
For B30, the Kd was 18.8 ± 2.4 nM.

B31: target 1 C4A,U8A (mixed)
RNA 1: B1 RNA 1
RNA 2: B6 RNA 2 with C44A, G45C, C48A
Work on B31 yielded a Kd of 25.3 ± 2.1 nM.

B32: target 1 insG 3' of 9,insG 3' of 7 (mixed)
RNA 1: B1 RNA 1
RNA 2: B3 RNA 2 with U44G, C45U, A46C
Work on B32 yielded a Kd of 10.7 ± 0.4 nM.

B33: target 1 insA 3' of 15,insG 3' of 7 (mixed)
RNA 1: B1 RNA 1
RNA 2: B3 RNA 2 with G39A, U41G, A43U, U44A, C45U, A46C
B33 showed a Kd of 6.15 ± 0.19 nM.
